Laboratory results from FireProtDB (doi:10.1371/journal.ppat.1004158).

B1: Heterokaryon incompatibility protein s, Q03689 (parent)
chain: MSEPFGIVAGALNVAGLFNNCVDCFEYVQLGRPFGRDYERCQLRLDIAKARLSRWGEAVKINDDPRFHSDAPTDKSVQLAKSIVEEILLLFESAQKTSKRYELVADQQDLVVFEDKDMKPIGRALHRRLNDLVSRRQKQTSLAKKTAWALYDGKSLEKIVDQVARFVDELEKAFPIEAVCHKLAEIEIEEVEDEASLTILKDAAGGIDAAMSDAAAQKIDAIVGRNSAKDIRTEERARVQLGNVVTAAALHGGIRISDQTTNSVETVVGKGESRVLIGNEYGGKGFWDN

Variants of: B1
Details: Podospora anserina; pH 7.5; 25 °C; GdnHCl; optical density; structure 2KJ3; whole UniProt chain shown

Variant: K229A
- ddG of mutation (higher = less stable): -1.5 kcal/mol
- unfolding free energy: 4.4 kcal/mol

Variant: V239A
- ddG of mutation (higher = less stable): -1 kcal/mol
- unfolding free energy: 3.9 kcal/mol

Variant: L241A
- ddG of mutation (higher = less stable): -1 kcal/mol
- unfolding free energy: 3.9 kcal/mol

Variant: V264A
- ddG of mutation (higher = less stable): -1 kcal/mol
- unfolding free energy: 4 kcal/mol

Variant: V267A
- ddG of mutation (higher = less stable): -0.2 kcal/mol
- unfolding free energy: 2.9 kcal/mol

Variant: E272A
- ddG of mutation (higher = less stable): -1.9 kcal/mol
- unfolding free energy: 4.8 kcal/mol

Variant: S273A
- ddG of mutation (higher = less stable): -1.4 kcal/mol
- unfolding free energy: 4.3 kcal/mol

Variant: G278A
- ddG of mutation (higher = less stable): 0.8 kcal/mol
- unfolding free energy: 2.5 kcal/mol

Variant: D288A
- ddG of mutation (higher = less stable): -1.2 kcal/mol
- unfolding free energy: 4.1 kcal/mol
